Measurements from the supplement of paper PMC9112550, “Optimization of the antimicrobial peptide Bac7 by deep mutational scanning” (BMC Biology, 2022).

test system: Escherichia coli TOP10; experiment: shrunken log2 fold change of peptide-encoding DNA abundance (4.5 h post-induction vs induction); higher = less antimicrobial activity (less host growth inhibition); details: time post-induction: 4.5 h; library: site-saturation at positions 5, 18, 19, 20
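Also: peptides expressed intracellularly from a pBAD plasmid library in pooled LB shake-flask culture, induced with 0.3% L-arabinose, DNA abundance read by NGS, three biological replicates, DESeq2 with apeglm shrinkage.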

| Sequence | shrunken log2 fold change |
| --- | --- |
| RRIRRRPPRLPRPRPRPEYCPRP | 0.0246 |
| RRIRVRPPRLPRPRPRPAYMPRP | -0.271 |
| RRIRFRPPRLPRPRPRPLSRPRP | -0.102 |
| RRIRVRPPRLPRPRPRPYDQPRP | -0.192 |
| RRIRKRPPRLPRPRPRPYSCPRP | -0.0242 |
| RRIRLRPPRLPRPRPRPKSGPRP | 0.143 |
| RRIRQRPPRLPRPRPRPSRGPRP | 0.269 |
| RRIRQRPPRLPRPRPRPHCIPRP | 0.0493 |
| RRIRNRPPRLPRPRPRPILDPRP | -0.0452 |
| RRIRYRPPRLPRPRPRPVMDPRP | -0.122 |
| RRIRMRPPRLPRPRPRPTFQPRP | 0.428 |
| RRIRSRPPRLPRPRPRPVMRPRP | 0.594 |
| RRIRNRPPRLPRPRPRPRHNPRP | -0.403 |
| RRIRRRPPRLPRPRPRPRYTPRP | -0.186 |
| RRIRWRPPRLPRPRPRPQKQPRP | 0.184 |
| RRIRFRPPRLPRPRPRPNKLPRP | -0.615 |
| RRIRQRPPRLPRPRPRPVLHPRP | -0.149 |
| RRIRHRPPRLPRPRPRPPTRPRP | 0.429 |
| RRIRNRPPRLPRPRPRPTHDPRP | -0.219 |
| RRIRGRPPRLPRPRPRPTVAPRP | 1.99 |
| RRIRHRPPRLPRPRPRPNLFPRP | -0.0861 |
| RRIRARPPRLPRPRPRPWRHPRP | 0.333 |

| Sequence | shrunken log2 fold change |
| --- | --- |
| RRIRFRPPRLPRPRPRPFGFPRP | -0.436 |
| RRIRDRPPRLPRPRPRPMIAPRP | 0.732 |
| RRIRDRPPRLPRPRPRPHDIPRP | 0.0555 |
| RRIRIRPPRLPRPRPRPHEWPRP | 0.0272 |
| RRIRHRPPRLPRPRPRPNRPPRP | -0.022 |
| RRIRLRPPRLPRPRPRPAFNPRP | -0.189 |
| RRIRERPPRLPRPRPRPIVQPRP | -0.311 |
| RRIRPRPPRLPRPRPRPIDWPRP | 0.272 |
| RRIRHRPPRLPRPRPRPVPAPRP | -0.0665 |
| RRIRSRPPRLPRPRPRPNPKPRP | 0.0189 |
| RRIRARPPRLPRPRPRPLRLPRP | 0.809 |
| RRIRYRPPRLPRPRPRPDGSPRP | -0.317 |
| RRIRCRPPRLPRPRPRPTAIPRP | -0.273 |
| RRIRFRPPRLPRPRPRPLTMPRP | -0.396 |
| RRIRDRPPRLPRPRPRPTLMPRP | 0.114 |
| RRIRERPPRLPRPRPRPREVPRP | 0.13 |
| RRIRRRPPRLPRPRPRPIRGPRP | 0.1 |
| RRIRARPPRLPRPRPRPMQIPRP | 0.446 |
| RRIRMRPPRLPRPRPRPGHKPRP | -0.231 |
| RRIRYRPPRLPRPRPRPGIWPRP | 0.138 |
| RRIRWRPPRLPRPRPRPDSGPRP | -0.0735 |
| RRIRQRPPRLPRPRPRPCIIPRP | -0.0528 |

| Sequence | shrunken log2 fold change |
| --- | --- |
| RRIRWRPPRLPRPRPRPDKKPRP | -0.0507 |
| RRIRERPPRLPRPRPRPDVWPRP | 0.0561 |
| RRIRDRPPRLPRPRPRPGEMPRP | 0.163 |
| RRIRQRPPRLPRPRPRPASAPRP | 0.196 |
| RRIRYRPPRLPRPRPRPGFQPRP | -1.11 |
| RRIRERPPRLPRPRPRPSFQPRP | -0.0708 |
| RRIRPRPPRLPRPRPRPMAMPRP | -0.146 |
| RRIRMRPPRLPRPRPRPIRGPRP | -0.00871 |
| RRIRPRPPRLPRPRPRPPLLPRP | 0.081 |
| RRIRVRPPRLPRPRPRPHWWPRP | 0.355 |
| RRIRLRPPRLPRPRPRPILHPRP | -0.231 |
| RRIRARPPRLPRPRPRPHGMPRP | 0.238 |
| RRIRKRPPRLPRPRPRPGVTPRP | 0.409 |
| RRIRSRPPRLPRPRPRPIDVPRP | -0.0081 |
| RRIRNRPPRLPRPRPRPDWHPRP | -0.394 |
| RRIRHRPPRLPRPRPRPTYSPRP | -0.489 |
| RRIRMRPPRLPRPRPRPVFAPRP | 0.378 |
| RRIRQRPPRLPRPRPRPWYDPRP | -0.138 |
| RRIRQRPPRLPRPRPRPGMCPRP | 0.0819 |
| RRIRGRPPRLPRPRPRPIAAPRP | 2.9 |
| RRIRDRPPRLPRPRPRPYWKPRP | -0.00829 |
| RRIRWRPPRLPRPRPRPGAEPRP | 1.17 |

| Sequence | shrunken log2 fold change |
| --- | --- |
| RRIRARPPRLPRPRPRPMPMPRP | 0.695 |
| RRIRFRPPRLPRPRPRPMQHPRP | 0.0148 |
| RRIRIRPPRLPRPRPRPFPPPRP | -0.353 |
| RRIRVRPPRLPRPRPRPEEYPRP | -0.411 |
| RRIRWRPPRLPRPRPRPKAWPRP | 0.743 |
| RRIRIRPPRLPRPRPRPFFAPRP | 0.073 |
| RRIRYRPPRLPRPRPRPRRRPRP | -0.0051 |
| RRIRLRPPRLPRPRPRPWFSPRP | -0.225 |
| RRIRPRPPRLPRPRPRPCGDPRP | 0.078 |
| RRIRDRPPRLPRPRPRPFTKPRP | -0.262 |
| RRIRFRPPRLPRPRPRPQCFPRP | -0.0591 |
| RRIRFRPPRLPRPRPRPPGMPRP | 0.461 |
| RRIRQRPPRLPRPRPRPVFKPRP | -0.0447 |
| RRIRWRPPRLPRPRPRPMCTPRP | 0.356 |
| RRIRTRPPRLPRPRPRPWHSPRP | -0.274 |
| RRIRPRPPRLPRPRPRPTKNPRP | 0.0886 |
| RRIRVRPPRLPRPRPRPHHAPRP | -0.0431 |
| RRIRSRPPRLPRPRPRPSFNPRP | -0.644 |
| RRIRRRPPRLPRPRPRPEIFPRP | 0.215 |
| RRIRGRPPRLPRPRPRPGDIPRP | 0.143 |
| RRIRYRPPRLPRPRPRPVKQPRP | -0.00131 |
| RRIRKRPPRLPRPRPRPHVMPRP | 0.0754 |

| Sequence | shrunken log2 fold change |
| --- | --- |
| RRIRHRPPRLPRPRPRPHLCPRP | -0.0468 |
| RRIRFRPPRLPRPRPRPEFNPRP | -0.199 |
| RRIRERPPRLPRPRPRPIMWPRP | -0.268 |
| RRIRYRPPRLPRPRPRPFVEPRP | -1.17 |
| RRIRPRPPRLPRPRPRPQWWPRP | 0.111 |
| RRIRWRPPRLPRPRPRPEWFPRP | 0.395 |
| RRIRFRPPRLPRPRPRPWDEPRP | -0.264 |
| RRIRARPPRLPRPRPRPFQQPRP | 0.00604 |
| RRIRVRPPRLPRPRPRPYFTPRP | -0.689 |
| RRIRQRPPRLPRPRPRPTGAPRP | 0.412 |
| RRIRYRPPRLPRPRPRPYMYPRP | -0.23 |
| RRIRTRPPRLPRPRPRPGPVPRP | 0.141 |
| RRIRTRPPRLPRPRPRPGWLPRP | 0.445 |
| RRIRQRPPRLPRPRPRPKPIPRP | -0.112 |
| RRIRNRPPRLPRPRPRPWMYPRP | 0.0204 |
| RRIRCRPPRLPRPRPRPGKIPRP | -0.399 |
| RRIRKRPPRLPRPRPRPILCPRP | 0.00753 |
| RRIRCRPPRLPRPRPRPFVNPRP | -0.521 |
| RRIRHRPPRLPRPRPRPIQKPRP | -0.00174 |
| RRIRWRPPRLPRPRPRPWGSPRP | 0.0134 |
| RRIRSRPPRLPRPRPRPTDFPRP | -0.541 |
